B1: MBP-SNX17 (full-length, wild-type) [not stated] / Peptide LRP1_(14mer) [modified: 5-FAM (5-carboxyfluorescein) on the N-terminus; 5-FAM (5-carboxyfluorescein) on the N-terminus] [not stated] (parent complex)
chain 1: MHFSIPETESRSGDSGGSAYVAYNIHVNGVLHCRVRYSQLLGLHEQLRKEYGANVLPAFPPKKLFSLTPAEVEQRREQLEKYMQAVRQDPLLGSSETFNSFLRRAQQETQQVPTEEVSLEVLLSNGQKVLVNVLTSDQTEDVLEAVAAKLDLPDDLIGYFSLFLVREKEDGAFSFVRKLQEFELPYVSVTSLRSQEYKIVLRKSYWDSAYDDDVMENRVGLNLLYAQTVSDIERGWILVTKEQHRQLKSLQEKVSKKEFLRLAQTLRHYGYLRFDACVADFPEKDCPVVVSAGNSELSLQLRLPGQQLREGSFRVTRMRCWRVTSSVPLPSGSTSSPGRGRGEVRLELAFEYLMSKDRLQWVTITSPQAIMMSICLQSMVDELMVKKSGGSIRKMLRRRVGGTLRRSDSQQAVKSPPLLESPDATRESMVKLSSKLSAVSLRGIGSPSTDASASDVHGNFAFEGIGDEDL
chain 2: MNVEIGNPTYKMYE

Variants of: B1
Test: fluorescence anisotropy; 5-FAM-labeled LRP1 14-mer peptide
chain 1 N459A, chain 1 F462A showed a Kd of 1.5 µM.
chain 1 H457A was tested, and the Kd was 3.8 µM.
